In the assay the target is T1, HER-2 (UniProt P04626 23-652, limits assumed).
T1 construct: also called HER2/neu; erbB-2
Kind of assay: SPR (BIAcore 1000), HER-2 amine-coupled on chip, antibody injected at 6.25-200 nM. (In general: In SPR one partner is held on a chip, and binding of the other changes the refractive index at the surface.)

The record followed here is US20220041725A1 (MacroGenics, published 2022).

Usually koff stands for the rate constant with which the complex falls apart. A lower koff goes with a long-lived complex. As usually defined, the kon is the rate constant with which the complex forms.

The molecule ch4D5 (antibody) registered a koff of 6.3e-06 s⁻¹ and a kon of 110000 M⁻¹ s⁻¹.

B1: ch4D5-wild-type Fc (antibody, human IgG1, kappa, V domains shown)
VH: QVQLQQSGPELVKPGASLKLSCTASGFNIKDTYIHWVKQRPEQGLEWIGRIYPTNGYTRYDPKFQDKATITADTSSNTAYLQVSRLTSEDTAVYYCSRWGGDGFYAMDYWGQGASVTVSS
VL: DIVMTQSHKFMSTSVGDRVSITCKASQDVNTAVAWYQQKPGHSPKLLIYSASFRYTGVPDRFTGSRSGTDFTFTISSVQAEDLAVYYCQQHYTTPPTFGGGTKVEIKR
notes: Chimeric IgG with wild-type human IgG1 Fc; also called ch4D5-FcWT (wild-type Fc); Chimeric 4D5 Antibody having a wild-type Fc
Take B1: the koff was around 3.2e-07 s⁻¹ and the association rate constant (kon) was 170000 M⁻¹ s⁻¹.
